Source: publication PMC4822050, “Hemi-methylated DNA opens a closed conformation of UHRF1 to facilitate its histone recognition” (Nature Communications, 2016)

Target: T1, R295D/R296D mutant of full-length UHRF1 (human, UniProt Q96T88 1-793, R295D | R296D)
T1 construct: human UHRF1 (1–793)
T1 sequence (looked up): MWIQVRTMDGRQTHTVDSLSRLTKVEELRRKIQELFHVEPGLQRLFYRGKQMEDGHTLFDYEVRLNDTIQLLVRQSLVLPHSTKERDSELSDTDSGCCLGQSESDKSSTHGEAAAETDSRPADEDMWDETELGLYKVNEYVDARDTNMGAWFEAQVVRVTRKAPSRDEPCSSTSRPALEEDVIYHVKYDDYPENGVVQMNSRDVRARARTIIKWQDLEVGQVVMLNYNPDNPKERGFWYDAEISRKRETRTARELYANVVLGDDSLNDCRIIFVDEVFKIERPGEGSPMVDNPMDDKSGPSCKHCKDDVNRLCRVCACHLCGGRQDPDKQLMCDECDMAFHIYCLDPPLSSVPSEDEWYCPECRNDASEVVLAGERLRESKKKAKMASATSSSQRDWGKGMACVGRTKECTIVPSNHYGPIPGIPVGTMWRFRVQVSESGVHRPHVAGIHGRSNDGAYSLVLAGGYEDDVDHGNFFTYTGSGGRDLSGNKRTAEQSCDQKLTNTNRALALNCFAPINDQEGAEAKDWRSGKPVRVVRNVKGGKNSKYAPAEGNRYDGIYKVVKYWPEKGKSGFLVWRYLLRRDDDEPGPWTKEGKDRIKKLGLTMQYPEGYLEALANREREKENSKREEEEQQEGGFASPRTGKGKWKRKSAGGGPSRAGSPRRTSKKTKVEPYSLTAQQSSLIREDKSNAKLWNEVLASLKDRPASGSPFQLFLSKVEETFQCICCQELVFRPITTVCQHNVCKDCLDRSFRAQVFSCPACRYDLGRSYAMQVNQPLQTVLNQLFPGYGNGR
Assay: ITC; 0.05 mM protein in the cell, 0.5 mM protein or peptide in the syringe, iTC200, 18 °C, 10 mM HEPES pH 8.0, 100 mM NaCl
Conditions: both partners purified

fold lower binding affinity than wild type: 8 fold
Binder: ARTKQTARKSTGGKAPR (peptide, UniProt P68431 2-18, looked up, trimethyl-lysine at K9, histone H3, residues 1–17) [H3K9me3 peptide (1–17)]
